# B1: TPR t1 (parent)
# chain: GACCAAUCUGCCCUCAGAGCUCGAGAACAUCUUCGGAUGCAGAGGAGGCAGGCUUCGGUGGCGCGAUAGCGCCAACGUCCUCAACCUCCAAUGCAUCCCACCACAUGAUGAUGCCUGAAGAGCCUUGGUUUUUUG
# Variants of: B1
# Experiment: polymerase ribozyme fitness, log enrichment relative to wild type (log ratio); higher = more active; in vitro selection for triplet polymerase activity
# In short: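 Streptavidin-bead capture of gel-excised extended constructs, followed by RT-PCR, closed a single triplicate in vitro selection round. That round began by annealing PCR-built, transcribed mutant libraries of each subunit of a heterodimeric triplet polymerase ribozyme with a biotinylated primer, the partner subunit and triplets, then incubating them frozen at −7 °C. After Illumina sequencing of inputs and outputs, genotypes needed ≥10 input reads and ≥1 read per output. Fitness is the base-2 logarithm of genotype enrichment over wild-type enrichment, using inverse-variance-weighted replicate averages.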
row,Variant,polymerase ribozyme fitness (log ratio)
1,GACCAAUCUGCCCUCAGAGCUCGAGAACAUCUUCGGAUUCAGAGGAGGCAGGCUUCGGUGGCGCAAUAGCGCCAACGUCCUCAACCUCCAAUGCAUCCCACCACAUGAUGAUGCCUGAAGAGCCUUGGUUUUUUG [G39U G65A],-6.81
2,GACCAAGCUGCCCUCAGAGCUCGAGAACAUCUUCGGAUGCAGAGGAGCCAGGCUUCGGUGGCGCGAUAGCGCCAACGUCCUCAACCUCAAAUGCAUCCCACCACAUGAUGAUGCCUGAAGAGCCUUGGUUUUUUG [U7G G48C C89A],-2.97
3,GACCAAUCUGCCCUCAGAGCUCGAGAACAUCUUCGUAUGCAGAGGAGGCAGGCUUCGGUGGCGCGAUAGCGCCAACGUCCUCAACCUCCAAUGCAUCCCACCACAUGAUGAUGCCUGAAGAGCCUUAGUUUUUUG [G36U G127A],-2.27
4,GACCAAUCUGCCCUCAGAGCUCGAGAACAUCUUCGGAUGCAGAGGAGGCAGGCUUCGGUGGCGCGAUAGCGCCAACGCCCUCAGCCUCCAAUGCAUCCCACCACAUGAUGAUGCCUGAAGAGCCUUGAUUUUUUG [U78C A84G G128A],-3.53
5,GACCAAUCUUCCCUCAGAGCUCGAGAACAUCUUCGGAUGCAGAGGAGGCAGGCUUCGGUCGCGCGAUAUCGCCAACGUCCUCAACCUCCAAUGCAUCCCACCACAUGGUGAUGCCUGAAGAGCCUUGGUUUUUUG [G10U G60C G69U A108G],-4.87
6,GACCAAUCUGCUCUCAGAGCUCGAGAACAUCUUCGGAUGCAGAGGAGGCAGGCUUCGGUGGCGCGAUAGCGCCAACGUCCUCAACCUCUAAUGCAUCCCACCACAUGAUGAUGCCUGAAGAGCCUUGGUUUUUUG [C12U C89U],0.399
7,GACCAAUCUGCCCUCAGUGCUCGAGAACGUCUUCGGAUGCACAGGAGGCAGGCUUCGGUGGCGCGAUAGCGCCAACGUCCUCAACCUCCAAUGCAUCCCACCACAUGAUUAGGCCUGAAGAGCCUUGGUUUUUUG [A18U A29G G42C G110U U112G],-5.42
8,GAUCAAUCUGCCCUCAGAGCUCGAGAACAUCUUCGGAUGCAGAGGAGGCAGGCUUCGGUGACGCGAUAGCGCCAACGUCCUCAACCUCCAUUGCAUCCCACCACAUGAUGAUGCCUGAAGAGCCUUGGUUUUUUG [C3U G61A A91U],-1.66
9,GACCAAUCUGCCCCCAGAGCCCGAGAACAUCUUCGGAUGCAGAGGAGGCAGGCUUCGGUGACGCGAUAGCGCCAACGUCCUCAACCUCCAAUGCAUCCCAUCACAUGAUGAUGCCUGAAGAGCCUUGGUUUUUUG [U14C U21C G61A C101U],-3.37
10,GACCAAUCUGCCCUCAGAGCUCGAGAACAUCUUCGGAUGCAGAGGAGGCAGGCUUCGGUGGCGCGAUAGCGCCAACGUCUUCAACCUCCAAUGCAUCCCACCCCAUGAUGAUGCCUGAAGAGCCUUGGUUUUUUG [C80U A103C],-6.57
11,GACCAAUCUGCCCUCAGAGCUUGAGAACAUCUUCGGAUGCAGAGGAGGCAGGCUUCGGUGGCGCGAUACCGCCAACGUCCUAAACCUCCAAUGCAUCCCACCACAUGAUGACGCCUGAAGCGCCUUGGUUUAUUG [C22U G69C C82A U112C A121C U132A],-3.46
12,GACCAAUCUGCCCUCAGAGCUCGAGAACAUCUUCGGAUGUAGAGGAGGCAGGCUUCGGUGGCGCGAUAGCGCCAACGUCCUCAACCUCCAAUGCAUCCCACCACAUGAUGAUGCCUGAAGAACCUUGGUUUUUUG [C40U G122A],-1.22
13,GACCAAUCUGCCCUCAGAGAUCGAGAACAUCUUCGGAUGCAGAGGAGGCAGGCUUCGGUGGGUCGAUAGCGCCAACGUCCUCAACCUCCAAUGCAUCCCACCACAUGAUGAUGACUGAAAAGCCUUGGUUUUUUG [C20A C62G G63U C114A G120A],-6.07
14,GACCAAUCUGCCCUCAGAGCUCCAGAACAUCUUCGGAUGCAGAGGAGGCAGGCUUCGGCGGCGCGAUAGCGCCAACGUCCUCAACCUCCAAUGCAUCUCAACACAUGAUGACGCCUGAAGAGCCUUGGUUUUUUG [G23C U59C C98U C101A U112C],-7.02
15,GACCAAUCUGCCCUCAGAGCUCGAGAACAUCUUCGGAUGCAGAGGAGGCAGGCUUCGGUGGCGCGAUAGCGCCAACGUCUUCAACCUCCAAUGCAUCCCACCACAUGAUGGUGCCUGAAGAGCCUUGGUUUUUUG [C80U A111G],-0.196
16,GACCAAUCUGCCCUCAGAGCUCGAGAACAUCUUCGGAUGCAGAGGAGGCAGGCUUCGGUGGCGCGAUAGCGCCAACGACCUCAACCUCCAAUGCAUCCCACCACAUGAUGAUGCCUGAAGAGCCUUGGUUUUUUG [U78A],-0.254
17,GACCAAUCUGCCCUCAGAGCUCGAGAACAUCUUCGAAUGAAGAGGAGGCAGGCUUUGGUGGCGCGAUAGCGCCAACGUCCUCAACCUCCAAUGCAUCCCACCACAUGAUAAUGCCAGAAGAGCAGUGGUUUUUUG [G36A C40A C56U G110A U116A C124A U125G],-7.28
18,GACCGAUCUGCCCUUAGAGCUCGAGAACAUCUUCGGAUGCAGAGGAGUCAGGCUUCGGUGGCGCGAUAGCGCCAACGUCCUCAACCUCCAAUGCAUCCCACCAUAUGAUGAUGCCUGAAGAGCAUUGGUUUUUUG [A5G C15U G48U C104U C124A],-0.12
19,GACCAAUCUGCCCUCAGAGCUCGAGAACAUCUUCGUAUGCAGAGGAGGCAGGCUUCGGUGGCGCGAUAGCGCCAACGUCCUCAACCUCCAAUGCAUCCCACCACAUGAUGAUGCCUGAAGAACCUUGGUUAUUUG [G36U G122A U131A],-1.83
20,GACCAAUCAGCCCUCAGAGCUCGAGAACAUCUUCGGAUGCAGAGGAGGAAGGCUUUGGUGGCGCGAUAGCGCAAACGUCCUCAACCUCCAAUGCAUCCCACCACAUGAUGAUGCCUGAAGAGCCUUGGUUUUUUG [U9A C49A C56U C73A],-0.459
21,GACCAAUCUGCCCUCAGAGCUCGCGAACAUCUUCGGCUGCAGAGGAGGCAGGCUUCGGUGGCGCGAUAGCGCCAACGUCCUCAACCUCCAAUGCAUCCCACCACAUGAUGAUGCCUGAAGUGCCUUGGUUUUUUG [A24C A37C A121U],-6.59

row,Variant,polymerase ribozyme fitness (log ratio)
1,GACCAAUCUGCCCUCAGAGCUCGAGAACAUCUUCGGAUGCAGAGGAGGCAGGCUUCGGUGGCGCGAUAGAGCCAACGUCCUCAACCUCCAAUGCAUCCCACCACAUGAUGAAGCCUGAAGAGCCUUGGUUUUUUG [C70A U112A],-0.662
2,GACCAAUCUGUCCUCAGAGCUCGAGAACAUCUUCGGAUGCGGAGGAGGCAGGCUUCGGUGGCGCGAUAGCGCCAACGUCCUCAACCUCCAAUGCAUCCCACCAAAUGAUGAUGCCUGAAGAGUCCUGGUUUUUUG [C11U A41G C104A C123U U125C],-1.19
3,GACCAAUCUGCCCUCAGAGCUCGAGAACAUCUUCGGAUGCAGAGGGGGCAGGCUUCGGUGCCGCGAUAUCGCCAACGUCCUCAACCUCCAAUGCAUACCACCACAUGAUGUUGCCUGAAGAGCCUUGGUUUUUUG [A46G G61C G69U C97A A111U],-5.77
4,GACCAAUCUGCCCUCAGAGCUCGAGAACAUCUUCGGAUGCAGAGGAGGCAGGCUUCGGUGGCGCGAUAGCGCCAACGUCCUUAACCUCCAAUGCAACCCACCACAUGACGAUGCCUGAAGAGCCUUGGUUUUUUG [C82U U96A U109C],-5.99
5,GACCAAUCAGCCCUCAGAGUUCGAGAACAUCUUCGGAUGCAGAGGAGGCAGGCUUCGGUGGCGCGAUAGCUCCAACGUCCUCAACCUCCACUGCAUCCCACCACAUAAUGAUGCCUAAAGAGCCUUGGUUUUUUG [U9A C20U G71U A91C G107A G117A],-6.01
6,GACCAAUAUGCCCUCAGAGCUCGAGAACAUCUUCGGAUGCAGAGGAGGCAGGCUUCGGUGGCGCGAUAGCGCCAACGUCCUCAACCUCCAAUGCAUCCCACCACAUGAUGACGCCUGAAGGGCCUUGGUUUUUUG [C8A U112C A121G],2.38
7,GACCCAUCUGCCCUCACAGCUCGAGAACAUCUUCGGAUGCAGAAGAGGCAGGCUUCGGUGGCGCGAUAGCGCCAACGUCCUCUACCUCCAAUGCAUCCCACCACAUGAUGAUGCCUGAAAAGCCUUGGUUAUUUG [A5C G17C G44A A83U G120A U131A],-4.99
8,GACCAAUCUGCCCUCAGAGCUCGAGAUCAUCUUCGGAUGCAGAGGAGGCAGGCUUCGGUGGCGCGAUAGCGCCAACGUCCUCUACCUCCAAUGCAUCCCACCACAUGAUGAUGCCUGAAGAGCCUUGCUUUUUUG [A27U A83U G128C],-6.05
9,GACCAAUCUGACCUCAGAGCUCGAGGACAUCUUCGGAUGCAGAGGAGGCAGGCUUCGGUGGCGCGAUAGCCCCAACGUCCUCAACCUCCAAUGCAUCCCAACACAUGAUGAUGUCUGAAGAGCCUUGGUUUUUUG [C11A A26G G71C C101A C114U],-6.79
10,GACCAAUCUGCCCUCACAGCUCGAGAACAUCUUCGGAUGCAGAGGAGGCAGGCUUCGGUGGCGCGAUAGCGCCAACGUUCUCAACCUCCAAUGCAUCCCACCACAUGAUGAUGCCUGAAGAGCCUUGGUUUUUUG [G17C C79U],-4.69
11,GACCUAUCUGCCCUCAGAGCUCGAGAACAUCUUCGGAUGCAGAGGAGGCAGGCUUCGGUGUCGCGAUAGCGCCAACGUCCUCAACCUCCAAUGCAUCCCACCACAUGAUGAUGCCUGAAGAGCAUUGGUUUUUUG [A5U G61U C124A],1.19
12,GACCAAUCUGCUCUCAGAGCUCGAGAACAUCUUCGGAUGCAGAGGAGGCAGGCUUCGGUGGCGCGAUAGCGCCAACGUCCUCAACCUCCAAUGCAUCCCACCACAUGAUGAUGCCUGAAGAGACUUGGUUUUUUG [C12U C123A],2.11
13,GACCAAUAUGCCCUCCGAGCUCGAGAACAUCUUCGGAUGUAGAGGAGGCAGGCUUCGGUGGCGCGAUAGCGACAACGUCCUCAACCUCCAAGGCAUCCCACCACAUGAUGAUGCCUGAAGAGUCUUGGUAUUUUG [C8A A16C C40U C72A U92G C123U U130A],-3.93
14,GACCAAUCUGCCCUCAGAGCUCGAGAACAUCUUCGAAUGCAGAGGAGGCAGGCUUCGGUGGCGCGAUAGCGCCAACGUCCUCAACCUCCAAUGCAUCCCACCACAUGAUGAUGACUGAAGAGCCUUGGUUUUUUG [G36A C114A],-2.96
15,GACCAAGCUGCCCUCAGAGCUCGAGAACAUCUUCGGAUGCAGAGGAGGCAGGCUUCGGUGGCGCGAUAGCGCCAACGUCCUCAACCUUCAAUCCAUCCCACCACAUGAUGAUGCCUGAAGAGCCUUGGUUUUUUG [U7G C88U G93C],-1.33
16,GACCAAUCUGCCCUCAGAGCUCGAGAACAUCUUCGGAUGCAGAGGAGGCAGGCUUCGGUGGCUCGAUAGCGCCAACGUCCUCAACCUCCACGGCAUCCCACCACAUGAUGAUGCCUGAAGAGCCUUGGUUUUUUG [G63U A91C U92G],-4.45
17,GACCAAUCUGCCCUCAGAGCUCGAGAACAUCUUCGGAUGCAGAGGAGGCAGGCUUCGGUGGCGCGAUAGCGCCAACGUCCUCAACCUCCAAUGCAUCCCACCAGAUGAUGAUGGCUGAAAAGCCUCGGUUUUGUG [C104G C114G G120A U126C U133G],-5.9
18,GACCAAUCUGCCCUCAGAGCUCGAGAACAUCUUCGGAUGCAGAGGAGGCAGGCUUCGGUGGCACGAUAGCGCCAACGUCCUCAACCUCCAAUGCAUCCCAACACAUGAUGAUGCCUGAAGAGCCUUGGUUUUUUG [G63A C101A],-3.39
19,GACCAAUCUGCCCUCAGAGCUCGAGAACAUCUUCGGAUGCAGAGGAGGCAGGCUUCGGUCGCGCGAUAGCGCCAACGUCCUCAACCUCCAAUGCAUCCCACCACAUGAUGAUGCCUGAAGAGUCUUGGUUUUUUG [G60C C123U],0.343
20,GACCAAUCUGCCCUCAGAGCUCGAGAUCAUCUUCGGAUGGAGAGGAGGCAGGCUUCGGUGGCGCGAUAGCGCCAACGUCCUCAACCUCCAAUGCAUCCCACCACAUGAUGAUGCCUGAAGAGCCUUGGUUUAUUG [A27U C40G U132A],-5.01
21,GACCAAUCUGCCCUCAGAGCUCGAGAACAUCUUCGGUUGCAGAGGAGGCAGGCUUCGGUGGCGCGAUAGCGCCAACGUCCUCAACCUCCAAUGCAUCCCACCACAUGAUGAUGCCUGAAGAGCCGUGGUUUUUUG [A37U U125G],-1.07
